Test: soluble fraction after stress (log2 fold change); higher = more stays soluble; pooled small domains, quantitative proteomics
Settings: stress: 50 degC
How it was run: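 Custom libraries of small protein domains were pooled and measured in a high-throughput format, with quantitative proteomics as the read-out. Each library was stressed at 50°C. The value is the log2 fold change in the amount of each protein that stays soluble after stress, used as a measure of aggregation propensity; higher values mean more of the protein stays soluble.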
In the case of “HMNVEATAETLLALLKKNGGSLPFGDKSDPEAIQSQLKMSKKTFKKAAGTLFKKKLVRIEDHGIFL”, the “soluble fraction (log2)” value is reported as -0.657.
With “HMNVEGEVVVPNVIGRTMKDVAVILSDLGLRMEAEGTGVAKSSQPQHGTSVKRGTVVQVRFEPLSVN” the “soluble fraction (log2)” value was 0.141.
In the case of “HMNVEKLREMYPEGTKIILQEMQGESRMAKGLKGTVTHVDDAGQIHMKWENGSSLVLNVEVDTFKKIE”, the “soluble fraction (log2)” value is reported as 0.0915.
For “HMNVEVDSIGDDDFLVKVSAGTSTEHRVTLTDAYWEQIWSSSLPKKEIISLSFAFLLEREPNSSIMRT”, the “soluble fraction (log2)” value was 0.0604.
For “HMNVNALIGQEGIVIKEINSGSNKIGQVKISGDTWSAVTTNDFTNAIPVGSNVKILKIDGVNLIVEPVY”, the “soluble fraction (log2)” value was -0.0724.
For “HMNVNVSFTQLRHKAEHAIQAKNWSEARNLLTLATLMRPTHRNVARRLKAVEQRNRLFRRLLLILTHRKV”, the “soluble fraction (log2)” value was -0.295.
For “HMNVPFGFDEVNGKLVKNEEEQAIISEIKSLKNKGLSLRKIAEALNGRGIATKNGKAWTAVQIQRIA”, the “soluble fraction (log2)” value was -0.0386.
With “HMNVPLYIMIESAVEQRLLDGTYQVGKMIPTEFELMDEFSVSRETVRKAINLLVQRGKLEKKRGIGTFVAS” the “soluble fraction (log2)” value was -2.92.
With “HMNVSDIENKLNEMLSPLEKKVMVLYLEGKSYVEIGELLGRHTKSVDNALQRVKRKLEIYLKNRK” the “soluble fraction (log2)” value was -1.22.
With “HMNVTIGESIKNVINHYGTPIYSYNPNNQEKYYEFHTNKGVLVVTAIGKKNTGYVTRVSMTY” the “soluble fraction (log2)” value was -1.18.
In the case of “HMNVVDTGTDANYRVKISAVNLNMRLGPSTSYKSKGYITPGNYTIIKTSGDWGKVKETGYWVALKYTSKIN”, the “soluble fraction (log2)” value is reported as -1.06.
For “HMNVVINNELVSLMVEAMKDGVSSKSIQEEFEGYKISGKTITKKVLTAHVNKALEVFADMQE”, the “soluble fraction (log2)” value was -0.213.
In the case of “HMNYDPEEKITQIRTMLEIHSRIEFNEIITPATRRGEIIIIFLALLHMIKRGYIVVRQHRLFGDITIFARD”, the “soluble fraction (log2)” value is reported as -0.152.
In the case of “HMNYKDQISRYFQQAFHIYPKYQTMKNEEGNFTSKIFKDDKMIIEGVGKSKKKAEQDVSRKALIHFNVL”, the “soluble fraction (log2)” value is reported as -0.262.
For “HMNYKNAIGQVGSVYVPIPPNREGLGQIEVKVQSRVSTVRAVSDHSERLENRVAVRVIELVDDRTLLVEKL”, the “soluble fraction (log2)” value was -0.839.
In the case of “HMNYTSEDIKLASELFFHLLNNRILPANDVLASQYYDNNEIREILENMAEEGGLRIFGTRENLHLVSNGE”, the “soluble fraction (log2)” value is reported as -0.432.
In the case of “HMNYYDLLGIPKSATKQQIRKAYRTKAKEFHPDVNGPFNSHMHFLLLKQAYETLMDANMRHVYDMALIS”, the “soluble fraction (log2)” value is reported as -1.35.
With “HMPADHYEVLGIARDADAAEVKRAYRRLARESHPDANHGDSGAEVRFKAVSAAYEVLSDPERRARYDRFGH” the “soluble fraction (log2)” value was -0.00211.
For “HMPANVELLRTFTNKTGTKIKARIVAVSDNKVKLIRDDSKKFIVPIDSLSEEDQKYLKDWIANEVGEQ”, the “soluble fraction (log2)” value was 0.0498.
For “HMPARTANEEAIRKYLLNHDSITRKETQALLKTGQSAAGRILKEMVENGWLARIGNGRSTGYELR”, the “soluble fraction (log2)” value was -0.034.
In the case of “HMPATIEGIRLYLSSGLIKGVGEEMASRIVKAFGTDTIRVLDEEPERLLKVRGVGKKSLDRIRTSWAEH”, the “soluble fraction (log2)” value is reported as -0.386.
For “HMPATPDATVQAVQQRLNELGYDVGSADGLMGRGTRSAIIAFQQDRGLAATGVADQALLLQLQP”, the “soluble fraction (log2)” value was 0.208.
In the case of “HMPAWKINQELQATVIATKANQTRLRIEGQTFETQTAIALKPGQSLLIKVVSLEPQISFALI”, the “soluble fraction (log2)” value is reported as -1.45.
With “HMPDFLAELAARMERDAVTEAQIRQVVAQKGHYPEEVSPAQYHPDFFRQWLFPHWEKIVDVIRSSPEYTP” the “soluble fraction (log2)” value was -0.0503.
For “HMPDGTATATASVNVRSGASTLSPVLGVLRVGESIGVTGQANGGWVPVNYNGRAGYVYAAYLSFD”, the “soluble fraction (log2)” value was -0.161.
With “HMPDKIDSAAQGILDKLIRNDGFMAVTDKSPPEAIYKLFGVSKKVFKQAIGSLYKNRLITIEDAGLRIIPQ” the “soluble fraction (log2)” value was -0.0609.
For “HMPDLKIGKDHRLAEYIETKIAEDGYSPGAVLGEIKAKGLEFETEISKPTLYSYIDKGIFLTITNKELPV”, the “soluble fraction (log2)” value was 0.105.
With “HMPDLQKAIDDLLQVVDKRLNTSFESILNEVNSEKEAVAFFLALLEAVRWGFVKASQSDEGIKIEK” the “soluble fraction (log2)” value was -0.00989.
In the case of “HMPDLSAEERNIVEALQKSNDLQVNLIAVKTGMDMGTLSATLFGLEMKGLVKLMAGGTYHLI”, the “soluble fraction (log2)” value is reported as -0.141.
With “HMPDLSEDEEKIVSLLRDNNDLNVNIIVMRTQLPSATVTSSLFSLELKGVVRMYAGGMYHLM” the “soluble fraction (log2)” value was -1.7.
With “HMPDLSYVDEVLNRYKGHKGTLITVLQQVQAHKGYLEKEALERVARSMGVPTARIYGVVTFYAQFR” the “soluble fraction (log2)” value was 0.0318.
For “HMPDPVHAAYLRLAVLLTEQAIGPQVTEQQIRDRFALTRRQTSDLMGRLIREGIAEKRAGYGWNINTELTA”, the “soluble fraction (log2)” value was -0.845.
For “HMPDVAIMNVSVEPEKKVVRLQVKAISLEALLDFSTRLEAIPARVELQNHTPSKELSQKWAVNATLIVIY”, the “soluble fraction (log2)” value was 0.146.
In the case of “HMPDYYAILEVERTADAKTIKAAYRKLALAYHPDRNPGDQAAEERFKQINEAYAVLSDPEKRARYDRYGSV”, the “soluble fraction (log2)” value is reported as -0.31.
For “HMPEFKDMLKFFRMREHLSQSELAEKLGISASTVSMYEVGRRQPDFETEEKIADFFNTDLNTLRG”, the “soluble fraction (log2)” value was -0.39.
With “HMPEGTYLEKLAIENNNLQLIGLSREASQLVQLLQDAPQWRKVNLTGVLQADGAASGRDRFTMTAELQ” the “soluble fraction (log2)” value was 0.0683.
For “HMPEKNQITHLIRLIDDRDEFVRKRVREQLIKLGEDAIPFLEMAAKTENLEIQRIASEIIQAIIPRQ”, the “soluble fraction (log2)” value was -0.13.
With “HMPELPPHELLRALMVEHDIKQSELPEVGPQPVVSDVLAGKRALNLRQVAALAARFHVPMEVFT” the “soluble fraction (log2)” value was -0.153.
In the case of “HMPELSITDADIIVAGGRGMGSAENFGLIRELAGLLGAAVGASRVVVDAEWVDQKHLIGQTGK”, the “soluble fraction (log2)” value is reported as -0.112.
With “HMPELTASDEADLKALVGGDQGFEQMANWARSNLGEEEINRFDAVVDSNNKDAIHMAIQAMQARMNA” the “soluble fraction (log2)” value was 0.0174.
In the case of “HMPELTERELEVLLLTARGLPSSEAARLLFITRRTVAAHLTSIYGKLGARNKTEAVLAALKRGIIMLDQIG”, the “soluble fraction (log2)” value is reported as -4.
With “HMPESYFEMLQKLLETYALPQEGTIYFSAADLARMPQKFEDVIEQTAQKKGGHLVVSKEPKDMDGGFVLV” the “soluble fraction (log2)” value was -1.41.
For “HMPEVAHTIDMEAVNKHWDELPEREQRILVMRFYGNLTQTEIGERLGISQMHVSRLLARALSHLKSRLLD”, the “soluble fraction (log2)” value was -3.37.
With “HMPEVYPFEVAEDDAGKRLDVFLSEEIEEFTRSFIQKLIAGGLASVNRAPARASYRVKPRDLVELQVPE” the “soluble fraction (log2)” value was -0.448.
With “HMPFNREYWIEQLLKEVGLMGTPYAELDKHEVELDSPTGRASGFKVNAKTYVDQQLLFIENEYNNQPE” the “soluble fraction (log2)” value was -0.153.
In the case of “HMPFREGDEVFVELVEPHMYNEDDAVAKLDGYVVAVRGAAGLVGQKVLVRIERVGRSSAEATLVA”, the “soluble fraction (log2)” value is reported as 0.109.
For “HMPGEIKKIPINSISYQDLKQHPYFDAYLAKQVIKYRETKGRIENIEQFREATRAYQSLIEKVTPYLDFE”, the “soluble fraction (log2)” value was 0.14.
With “HMPGGLSAEDVEKMVEKVLTVNGDVVEEIRSGRDPKGKKIKFLAGLVMRDARGQADAAAVSGILERRLKEG” the “soluble fraction (log2)” value was 0.133.
With “HMPGLITLEAAKTTALNHAKLTADQVTFVKQKLDRDDGRQVYEIEFYTSDYKEYDYEIDAVSGLILEVDYD” the “soluble fraction (log2)” value was -0.671.
In the case of “HMPGLPLWAFSTRGSAIHTGASFRDGDGLLFGPESRGLPDWLLEEVGQDRVLRLPMRPGSRSLNLSNAV”, the “soluble fraction (log2)” value is reported as -0.304.
In the case of “HMPGPAEMPGWITARAKKLGGQITPEAARALAAEMGSDTEQASREIEKLLTYVDYRRPVEEEDVALLTA”, the “soluble fraction (log2)” value is reported as -0.0046.
For “HMPGRKTTFEERLSIIEDLIKHDVNYSWAVDKYHVSYQQVYGWYQKYRKSGNDPQSLRDRRGK”, the “soluble fraction (log2)” value was -2.7.
In the case of “HMPGRPSRISDAVKDQIDHDLRKNPRDLGYSQNLWDGKLLSHHLKERYQITLGIRQAQRLFHQLGFRQR”, the “soluble fraction (log2)” value is reported as -0.0323.
In the case of “HMPGVLEVDTGGVAAVAYVDGVEVGRVPGELQIAAGTKTLMLKADRYLDYVQSLEIDGLGKRQLLVATLQS”, the “soluble fraction (log2)” value is reported as -0.25.
In the case of “HMPGVTTQLHRLNGTEETYIIKRGDGVLEIDGEKSELQLGDAIIIPAGASQKISNIGDEDLE”, the “soluble fraction (log2)” value is reported as -0.346.
In the case of “HMPHFFISTSDVNQDIITVSDKENFHHIARVLRSKVGETLLLVDENRTQYKVVIQNIDSKSITTKVVETLK”, the “soluble fraction (log2)” value is reported as -0.138.
With “HMPHFGVVLQMDDWKTLRDRLEARDDIDWVMKPNLRFEGQPGEQATLFIRDPSGNALEFKGFADLSQVF” the “soluble fraction (log2)” value was -0.348.
In the case of “HMPHSTTDFSVSPDERQIVYSTNLQGRYDLWALDHNQGYPYPLTKKGQMSFFIKHLPGSQMILTGFD”, the “soluble fraction (log2)” value is reported as 0.00171.
In the case of “HMPIDQAKRKKEIIQNFGIRKIYKFSEIFDLKFGRDNIIVTFLIILDMIKEGVVEINENKEEIEFEYK”, the “soluble fraction (log2)” value is reported as -0.166.
In the case of “HMPIKYTHKGYTINVSRSKMNGTTFVKVVDPKGQVIQQSQDNRIQDVNQLVTTMKQYIDTLKPS”, the “soluble fraction (log2)” value is reported as 0.189.
In the case of “HMPILRDEVYLSIKEAILTGELAPGERISIGRLLPQIGFSPTPIREALLKLEQEGFVSRLQRGGFIVSR”, the “soluble fraction (log2)” value is reported as -0.991.
In the case of “HMPIQLLSEKYMDEHWDELDKDEVSLYQNMSIRFLLKHEDDINWKLYSTNPFISIDTIDFFKDKISWVNI”, the “soluble fraction (log2)” value is reported as -2.57.
With “HMPKAKASARNDTRTRLLTIGTEVLSQKGFASTGVEEILSVAGVPKGAFYYYFESKAAFGLAVIENYE” the “soluble fraction (log2)” value was 0.0027.
With “HMPKAMAIMSEIAGTVHIDDTKKSRHVEVTGVDDNGAPVTKSYLIPFGHRLKVMEGDVLVKGALLT” the “soluble fraction (log2)” value was -0.0964.
In the case of “HMPKHHIESVIPENFAGERLDKVLAVLWGTFSRAQLTRWIRDGSLLLDGHKVKPNTKVDGSEKIVLQAEVA”, the “soluble fraction (log2)” value is reported as -0.891.
In the case of “HMPKNEHETKAIGNQTGGRVFLFLNTDNINRDYNMYISKQVKFVREISQEYYGKVAVFEDLYGNLWDLIE”, the “soluble fraction (log2)” value is reported as 0.149.
For “HMPKNRTDYVQDVLKSLGRPAHYKEITQIINAMLPKEAQYSAKSIQVVLGSSPLFIRVGTGTYALVE”, the “soluble fraction (log2)” value was -0.679.
In the case of “HMPKNVEVPNVVGLSLPMAKLRLTQLGLHIVVRDSVWSETGQPNTILDQDPQPGKKIKPESTVYVKVN”, the “soluble fraction (log2)” value is reported as -0.0939.

From the domain aggregation screens of Martell et al. (2025)
